The source of these data is patent US20180148503A1 (Memorial Sloan Kettering, published 2018).

Where only a bound is given, the exact number is not on record here.

In assay [1] the target is T1, PRA435-443 (…) / HLA-A*0201 complex (human).
T1 construct: also called PRAME P435
Briefly: flow cytometry on tumor cell lines.

The target in assay [2] is PRA300-309 (…) / HLA-A*0201 complex (human). Briefly: cell-based or functional assay.
Assay [3] deals with T2, PRA300-309 (…) / HLA-A*0201 complex (human).
T2 construct: also called PRAME300; PRAME P300
Briefly: method not stated; told in the ADCC example with PRAME+/HLA-A*02:01+ leukemia cells; lower end of the printed range 3-4 nM.

The target of assay [4] is T2, PRA300-309 (…) / HLA-A*0201 complex. Briefly: method not stated; told in the ADCC example with PRAME+/HLA-A*02:01+ leukemia cells; upper end of the printed range 3-4 nM.
For assay [5], the target named is T3, HLA-A*0201 on T2 cells without added peptide (human).
T3 construct: Background target (T2 cells with no peptide pulsed); also used as the HLA-A*02 partner of the peptide in the stabilisation read-out; also called T2 cells alone; unpulsed T2 cells
Briefly: flow cytometry, Prame20 mAb on T2 cells without peptide; axis without numbers. Background: A flow cytometer gives signals particle by particle.

The target in assay [6] is T4, 009-mut3 (…) / HLA-A*0201 complex on T2 cells (human).
T4 construct: also called EXT009-mut3; Pr302A
Briefly: flow cytometry, APC-Pr300#20 at 3 µg/ml on peptide-pulsed T2 cells; the sheet gives 324 for T2 alone and 68351 for Pr300.

Assay [7] has as its target T5, 009-mut4 (…) / HLA-A*0201 complex on T2 cells (human).
T5 construct: also called EXT009-mut4
The assay is described as above.

Assay [8] has as its target T6, 009-mut5 (…) / HLA-A*0201 complex on T2 cells (human).
T6 construct: also called EXT009-mut5
The assay is described as above.

The target in assay [9] is T7, 009-mut6 (…) / HLA-A*0201 complex on T2 cells (human).
T7 construct: also called EXT009-mut6
The description is as above.

The target in assay [10] is T8, 009-mut7 (…) / HLA-A*0201 complex on T2 cells (human).
T8 construct: also called EXT009-mut7; Pr306A
Described as above.

Assay [11] has as its target T9, 009-mut8 (…) / HLA-A*0201 complex on T2 cells (human).
T9 construct: also called EXT009-mut8
The assay is described as above.

For assay [12], the target named is T10, 009-mut9 (…) / HLA-A*0201 complex on T2 cells (human).
T10 construct: also called EXT009-mut9
The description is as above.

For assay [13], the target named is T11, 009-AAAA (…) / HLA-A*0201 complex on T2 cells (human).
T11 construct: Control peptide with alanines at positions 4-7; also called EXT009-AAAA; 009-AAAA (position 4-7)
Briefly: phage FACS on peptide-loaded T2 cells.

The target of assay [14] is T2, PRA300-309 (…) / HLA-A*0201 complex. Briefly: phage FACS on peptide-loaded T2 cells.
Assay [15] deals with T12, 009-mut2 (…) / HLA-A*0201 complex on T2 cells (human).
T12 construct: also called EXT009-mut2
Briefly: phage FACS on peptide-loaded T2 cells.

Assay [16] has as its target T4, 009-mut3 (…) / HLA-A*0201 complex on T2 …. Briefly: phage FACS on peptide-loaded T2 cells.
In assay [17] the target is T5, 009-mut4 (…) / HLA-A*0201 complex on T2 …. Briefly: phage FACS on peptide-loaded T2 cells.
Assay [18] addresses T6, 009-mut5 (…) / HLA-A*0201 complex on T2 …. Briefly: phage FACS on peptide-loaded T2 cells.
The target in assay [19] is T7, 009-mut6 (…) / HLA-A*0201 complex on T2 …. Briefly: phage FACS on peptide-loaded T2 cells.
Assay [20] deals with T8, 009-mut7 (…) / HLA-A*0201 complex on T2 …. Briefly: phage FACS on peptide-loaded T2 cells.
In assay [21] the target is T9, 009-mut8 (…) / HLA-A*0201 complex on T2 …. Briefly: phage FACS on peptide-loaded T2 cells.
The target in assay [22] is T10, 009-mut9 (…) / HLA-A*0201 complex on T2 …. Briefly: phage FACS on peptide-loaded T2 cells.
Assay [23] deals with T13, 009-mut10 (…) / HLA-A*0201 complex on T2 cells (human).
T13 construct: Alanine variant at peptide position 10
Briefly: phage FACS on peptide-loaded T2 cells.

In assay [24] the target is T11, 009-AAAA (…) / HLA-A*0201 complex on T2 …. Briefly: phage FACS on peptide-loaded T2 cells. This is another data set of the same source.
The target of assay [25] is T3, HLA-A*0201 on T2 cells without added …. Briefly: phage FACS on T2 cells without peptide.
The target is the same in assay [26]. Briefly: T2 stabilisation: surface HLA-A*02 level after pulsing with 50 µg/mL peptide, flow cytometry; the staining antibody is not named for this panel.

B1: Pr435#12 antibody (antibody, V domains shown)
VH: EVQLVESGAEVKKPGSSVKVSCKASGGTFSSYAISWVRQAPGQGLEWMGRIIPILGIANYAQKFQGRVTITADKSTSTAYMELSSLRSEDTAVYYCARQGYVWSEMDFWGQGTLVTVSS
VL: LLPVLTQPPSVSVAPGKTARITCGGNNIGSKSVHWYQQKPGQAPVLVIYYDSDRPSGIPERFSGSNSGNTATLTISRVEAGDEADYYCQVWDSITDHYVFGTGTKVTVLG
notes: also called Pr4350#12
With B1, in [1], the binding result is “binds”.

B2: Pr300#20-MAGE (antibody, V domains shown)
VH: QVQLVQSGAEVRKPGASVKVSCKASGGTFSSYAISWVRQAPGQGLEWMGRIIPILGIANYAQKFQGRVTITADKSTSTAYMELSSLRSEDTAVYYCARHYGQWWDYWGQGTLVTVSS
VL: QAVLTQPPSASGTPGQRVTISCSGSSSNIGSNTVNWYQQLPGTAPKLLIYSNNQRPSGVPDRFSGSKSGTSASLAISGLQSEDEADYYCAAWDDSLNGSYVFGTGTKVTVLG
modifications: modified afucosylated Fc
notes: also called Pr#20-Fc enhanced; Pr20M
Turning to B2, in [2], the “EC50 (ADCC, 51Cr release, human PBMC effectors, E:T 50:1)” value fell in the range of 2 to 3 nM. For the same molecule, the figures for the Kd in assay [3] and in assay [4] were at least 3 nM and at most 4 nM, respectively.

B3: Pr300#20 human IgG1 antibody (antibody, V domains shown)
VH: QVQLVQSGAEVRKPGASVKVSCKASGGTFSSYAISWVRQAPGQGLEWMGRIIPILGIANYAQKFQGRVTITADKSTSTAYMELSSLRSEDTAVYYCARHYGQWWDYWGQGTLVTVSS
VL: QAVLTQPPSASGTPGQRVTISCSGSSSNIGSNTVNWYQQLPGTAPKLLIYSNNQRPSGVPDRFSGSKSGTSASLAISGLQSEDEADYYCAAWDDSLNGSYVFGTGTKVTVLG
notes: Full-length human IgG1 with matching human lambda constant region; Used APC-conjugated in flow cytometry; also called Pr#20; PR#20
On to B3, for which, in assay [5], the binding result is “no binding”. Also, the “Median: APC-A” value in assay [6] came to 18900; in [7], 72800; in [8], 6240; in assay [9], 28600; in assay [10], 41500; in assay [11], 10900. Further, in [12], the “Median: APC-A” value worked out at 730.

B4: Pr435#37 antibody (antibody, V domains shown)
VH: EVQLVESGAEVKKPGASVKVSCKASGYTFTSYYMHWVRQAPGQGLEWMGIINPSGGSTSYAQKFQGRVTMTRDTSTSTVYMELSSLRSEDTAVYYCAAGSYYSLDIWGQGTMVTVSS
VL: LLPVLTQPHSVSESPGKTVTISCTGSSGSIASNFVQWYQQRPGSAPTTVIYDDNQRPSGVPDRFSASIDRSSNSASLTISGLKTDDEADYYCQSYDGSNVIFGGGTKLTVLG
notes: also called Pr4350#37
As to B4, in [1], the binding result is reported as “binds”.

B5: EXT009-8 phage (scFv phage clone) (scFv)
scFv: QSVVTQPPAVSGALGQRVTISCTGTTSNIGAGFDVHWYQQRPGAAPKLLISGNTHRPSGVPDRISGSKSGTLASLAITGLQAEDEADYYCQSYDRSLSTILFGGGTKLTVLGSRGGGGSGGGGSGGGGSLEMAQVQLVQSGAEVKKPGSSVKVSCKASGGTFSSHPISWVRQAPGQGLEWMGRIIPMLDIPNNAQKFQGRVTITADKSTDTAYLELSSLTSEDTAVYYCARGLYYYDYWGQGTLVTVSS
notes: also called EXT009-08
Turning to B5, the binding result in assay [13] is recorded as “no binding”. Moreover, the MFI worked out at 1360 in [14]; 83.3 in [15]; 88.2 in assay [16]; 87.6 in assay [17]; 138 in [18]; 3830 in assay [19]. The MFI in assay [20] was found to be 83.1; in assay [21], 82.5; in [22] it was 83.2; in assay [23] it was 83.2; in [24] it was 86.3; in assay [25], 85.9.

B6: EXT009-17 phage (scFv phage clone) (scFv)
scFv: QSVLTQPPSVSGAPGQRVTISCTGSSSNIGAGFDVHWYQQLPGTAPKLLIFGNSNRPSGVPDRFSGSKSGTSASLAITGLQAEDEADYYCQSYDSSLSGYVFGSGTKVTVLGSRGGGGSGGGGSGGGGSLEMAEVQLVESGAEVKKPGSSVKVSCKASGGTFSSYAISWVRQAPGQGLEWMGRIIPIFGIANYAQKFQGRVTITADKSTSTAYMELSSLRSEDTAVYYCARSMWYMDSWGQGTLVTVSS
Take B6: the binding result in [13] is listed as “no binding”. The MFI in [14] stood at 19400; in [15] it was 82; in assay [16], 95.5; in assay [17] it was 7510; in [18], 85.1; in [19] it was 23800. Also, the MFI in [20] is 82.1; in assay [21] it was 96.1; in assay [22], 79.7; in assay [23], 146; in assay [24] it was 85.7; in assay [25], 82.8.

B7: PRA300-309 peptide (ALYVDSLFFL) (peptide)
peptide: ALYVDSLFFL
notes: also called pr300 peptide; PRAME300 peptide
Take B7: in assay [26], the binding result is recorded as “binds”.
